# Results published in PMC5226681.
# Columns and labels:
# [1] = TZM-bl pseudovirus neutralization, plateau; details: control: CAP45 pseudovirus grown normally in 293T
# [2] = TZM-bl pseudovirus neutralization; details: glycan lost; control: wild-type CAP45
Substance,other: neutralisation sensitivity ([1]; glycan changed form),other: neutralisation sensitivity [2],further results
"HIV-1 envelope glycoprotein (Env, gp160) CAP45: kifunensine",no change,–,–
"HIV-1 envelope glycoprotein (Env, gp160) CAP45: benzyl 2-acetamido-2-deoxy-α-D-galactopyranoside",–,–,other: neutralisation sensitivity ([1]; glycan lost): no change
"HIV-1 envelope glycoprotein (Env, gp160) CAP45: N230D",–,no change,–
"HIV-1 envelope glycoprotein (Env, gp160) CAP45: N611D",–,decreases,–
"HIV-1 envelope glycoprotein (Env, gp160) CAP45: 293S GnTI(-/-) cells",no change,–,–
"HIV-1 envelope glycoprotein (Env, gp160) CAP45: swainsonine",no change,–,–
"HIV-1 envelope glycoprotein (Env, gp160) CAP45: N276D",–,decreases,–
"HIV-1 envelope glycoprotein (Env, gp160) CAP45: N276A",–,abolishes,–
